Test results from PMC5940254 (The Journal of General Physiology, 2018).
Like-named read-outs stand apart in the source and are kept apart here.

How the values were obtained:
Experiment in all cases: single-molecule pull-down
[1] = molecular target: Ci-VSP phosphatase-only protein (PDo) (Ciona intestinalis)
[2] = molecular target: Ci-VSP phosphatase-only protein (PDo) (Ciona intestinalis); remark: listed apart in the source
[3] = molecular target: Ci-VSP voltage-sensing domain only protein (VSDo) (Ciona intestinalis)
[4] = molecular target: Ci-VSP voltage-sensing domain only protein (VSDo) (Ciona intestinalis); remark: listed apart in the source
[5] = molecular target: the molecule itself

Ci-VSP phosphatase-only protein (PDo) (domain or fragment)
percent of spots bleaching in a single step [1]: 80%
stoichiometry N [1]: 2
percent of spots bleaching in a single step [2]: 57%
percent of spots bleaching in two steps [2]: 34%

Ci-VSP voltage-sensing domain only protein (VSDo) (domain or fragment)
percent of spots bleaching in a single step [3]: 65%
stoichiometry N [3]: 2
percent of spots bleaching in a single step [4]: 37%
percent of spots bleaching in two steps [4]: 55%

B1: ASIC1A channel, HA- and GFP-tagged (trimer control) (natural protein)
chain: MELKTEEEEVGGVQPVSIQAFASSSTLHGLAHIFSYERLSLKRALWALCFLGSLAVLLCVCTERVQYYFCYHHVTKLDEVAASQLTFPAVTLCNLNEFRFSQVSKNDLYHAGELLALLNNRYEIPDTQMADEKQLEILQDKANFRSFKPKPFNMREFYDRAGHDIRDMLLSCHFRGEACSAEDFKVVFTRYGKCYTFNSGQDGRPRLKTMKGGTGNGLEIMLDIQQDEYLPVWGETDETSFEAGIKVQIHSQDEPPFIDQLGFGVAPGFQTFVSCQEQRLIYLPSPWGTCNAVTMDSDFFDSYSITACRIDCETRYLVENCNCRMVHMPGDAPYCTPEQYKECADPALDFLVEKDQEYCVCEMPCNLTRYGKELSMVKIPSKASAKYLAKKFNKSEQYIGENILVLDIFFEVLNYETIEQKKAYEIAGLLGDIGGQMGLFIGASILTVLELFDYAYEVIKHRLCRRGKCQKEAKRSSADKGVALSLDDVKRHNPCESLRGHPAGMTYAANILPHHPARGTFEDFTC
stoichiometry N [5]: 3

B2: TREK1 channel, HA- and/or GFP-tagged (dimer and monomer controls) (natural protein)
chain: MLASASRERPGYTAGVAAPDLLDPKSAAQNSKPRLSFSSKPTVLASRVESDSAINVMKWKTVSTIFLVVVLYLIIGATVFKALEQPQEISQRTTIVIQKQTFIAQHACVNSTELDELIQQIVAAINAGIIPLGNSSNQVSHWDLGSSFFFAGTVITTIGFGNISPRTEGGKIFCIIYALLGIPLFGFLLAGVGDQLGTIFGKGIAKVEDTFIKWNVSQTKIRIISTIIFILFGCVLFVALPAVIFKHIEGWSALDAIYFVVITLTTIGFGDYVAGGSDIEYLDFYKPVVWFWILVGLAYFAAVLSMIGDWLRVISKKTKEEVGEFRAHAAEWTANVTAEFKETRRRLSVEIYDKFQRATSVKRKLSAELAGNHNQELTPCRRTLSVNHLTSEREVLPPLLKAESIYLNGLTPHCAGEDIAVIENMK
stoichiometry N [5]: 2
